# Measured values published in IntAct's records for PubMed 17030804.
# B1: Rab11 family-interacting protein 3 (Homo sapiens), O75154-1 (parent)
# chain: MASAPPASPPGSEPPGPDPEPGGPDGPGAAQLAPGPAELRLGAPVGGPDPQSPGLDEPAPGAAADGGARWSAGPAPGLEGGPRDPGPSAPPPRSGPRGQLASPDAPGPGPRSEAPLPELDPLFSWTEEPEECGPASCPESAPFRLQGSSSSHRARGEVDVFSPFPAPTAGELALEQGPGSPPQPSDLSQTHPLPSEPVGSQEDGPRLRAVFDALDGDGDGFVRIEDFIQFATVYGAEQVKDLTKYLDPSGLGVISFEDFYQGITAIRNGDPDGQCYGGVASAQDEEPLACPDEFDDFVTYEANEVTDSAYMGSESTYSECETFTDEDTSTLVHPELQPEGDADSAGGSAVPSECLDAMEEPDHGALLLLPGRPHPHGQSVITVIGGEEHFEDYGEGSEAELSPETLCNGQLGCSDPAFLTPSPTKRLSSKKVARYLHQSGALTMEALEDPSPELMEGPEEDIADKVVFLERRVLELEKDTAATGEQHSRLRQENLQLVHRANALEEQLKEQELRACEMVLEETRRQKELLCKMEREKSIEIENLQTRLQQLDEENSELRSCTPCLKANIERLEEEKQKLLDEIESLTLRLSEEQENKRRMGDRLSHERHQFQRDKEATQELIEDLRKQLEHLQLLKLEAEQRRGRSSSMGLQEYHSRARESELEQEVRRLKQDNRNLKEQNEELNGQIITLSIQGAKSLFSTAFSESLAAEISSVSRDELMEAIQKQEEINFRLQDYIDRIIVAIMETNPSILEVK
# Variants of: B1
# Settings: with rb11a_human RAB11A
row,effect of a mutation on the interaction,Variant
1,disrupting interaction strength,Y737S
2,disrupting interaction strength,M746S
3,disrupting interaction strength,D739A
4,decreasing interaction strength,E747A
